Assay: yeast display, Sf9 membrane polyspecificity reagent, FACS + sequencing; frameworks hold sequencing errors
Procedure, shortened: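 Galactose-induced (36–48 hours) yeast carrying a synthetic nanobody display library were exposed to 10% biotinylated, detergent-solubilized Sf9 membrane reagent at 4 °C for 1 hour. FACS followed streptavidin microbead enrichment, using low and high (top ~1%) gates for expression (anti-HA) and reagent binding (streptavidin). Colony PCR, MiSeq 2 × 250 sequencing and CDR-length filtering followed. Labels for polyreactivity reflect the gate of origin.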

Row | Sequence | polyreactivity (PSR sort gate)
1 | QVQLVESGGGLVQAGGSLRLSCAASGIIFWDYAMGWSRQAPGKEREIVAAINTSGGTTTYADSVKGRFTISRDNAKNTVYLKMNSLKPEDTAVYYCAADTWGYYSYAYYYWGQGTQVTVSS | low polyreactivity
2 | QVQLVESGGGLVQAGAILRLSCAASGYIFVSYYLGWYRQAPGKEREVVAAISWRGGSTFYADSVKGRFTISRDNAKNTVYLQMNSLKPEDTAVFYCAVDDWLDWLFADFGYWGQGTQVTVSS | low polyreactivity
3 | QVQLVESGGGLVQAGGSLRLSCAASGSTLRYYAMGWYRQAPGKEREMVADITSSGNTNYADSVKGRFTISRDNAKNTVYLQMNSLKPEDTAVYYCAGDSANYQWYLSWQKDDYWGQGTQVTVSS | low polyreactivity
4 | QVQLVESGGGLVQAGGSLRLSCAASGSTFKAYVMGWYRQEPAKERELVAVISRSGGTTYYADSVKGRFTISRDNAKNTVYLQMNSLKPEDTAVYYCAAQWRYQYPESLESYYWGQGTQGTVSS | high polyreactivity
5 | QVQLVESGGGLVQAGGSLRLSCAASGLTFYGYTMGWYRQAPGKERELVADISISGGSTRYADSVKGRFTISRDNAKNTVYLQMNSLKPEDTAVYYCARDDIYYSNIYDYWGQGTQVTVSS | low polyreactivity
6 | QVQLQESGGGQVQAVGSLRLSCAPSGSNFVSDTMCWYRHAPGKDRELVASIGRGSTTNHADSVKGRFTISRDNAKNIVYLLMNSLKPEDTAVYYCAALESYGKYHGYWGQGTQVTVSS | low polyreactivity
7 | QVQLVESGGGLVQAGGSLRLSCAASGRTFYYYAMGWYRQAPGKERELVAAIRWRATSTFYADSVKGRFTISRDNAKNTVYLQMNSLKPEDTAVYYCATRGRWGYSGRSQGYSIYNYWGQGTKVTVSS | high polyreactivity
8 | QVQLVESGGGLVQAGGSLRLSCAASGSISYKYALGWYRQAPGKERELVAAISSSGGRTYYADSVKGRFTISRDNAKNTVYLQMISLKPEDTAVYYCNARTGTTWQGYEYDYWGQGTQVTVSS | low polyreactivity
9 | QVHLVESGGGLVQAGGSLRLSCAASGRIRFNAMGWYRQAPGKERELVAAITSDGGRTYYADSVKGRFTISRDNAKNTVYLQMNSLKPEDTAVYYCNTDYILWGDYDYWGQGTQVTVSS | low polyreactivity
10 | QVQLVESGGGLVQAGGSLRLSCAASGSIFPYVNAMGWYRQAPGKERELVASIPGGGGTKYADSVKGRFTISRDNAKNTVYLQMNSLKPEDTAVYYCNATSGNPASTARMNYWGQGTQVTVSS | low polyreactivity
11 | QVQLQESGGGLVKAGGTPRLSCAASYNIFPDSVMCWYRQAPGTERELVATIGFVATTNYADSVKGRFTISRDNAKNTLYLQMNSLNPEDTAVYYCAAVPLNYEYFCYWGEGTQVTVSS | low polyreactivity
12 | QVQLVQSGGGLVQAGGSLRLSCAASGLTFYYNVMGWYRQATGKERELVAAITSGGRTYYGDSVKGRFTISRDNAKNTVYLQMNSLKPEDTAVYYCARPYSRAYDYWGQGTEVTVSS | high polyreactivity
13 | QVQLVESGGGLVQAGCSLRLSWAASGNIFKGYAMGWSRQAPGKERELVAAISKSGGSTYYADSVKGRFTISRDNAKNTVYLQMNSLKPEDTAVYYCNTYTYAGYNFWGQGTQVTVSS | high polyreactivity
14 | QVQLVESGGGLVQAGGSLRLSCAASGSIFAPYAMGWYRQAPGKERELVAAISTGGRTHYADSVKGRFTISRDNAKNTVYLHMNSLKPEDTAVYYCAAARPTAGVIRPHYYWGQGTQVTVSS | high polyreactivity
15 | QVQLVESGGGLVQAGGSLRLSCAASGRIFGYNAMGWYRQAPGKERELVAAISSSGGSTYYADSVKGRFTISRDNAKNTVYLQMNSLKPEDTAVYYCAARRVTRTTVYRYQYYYWGQGTQVTVSS | high polyreactivity
16 | QVQLVESGVGLVQAGGTLRISCAASGRISRGYAMGWYRQAPGKERELVAAISRRGDSTYYADSVKGRFTISRDNAKYTVYLQMNSLKPEDTAVYYCAARNGGRYAAGLDYWGQGTHVTVSS | high polyreactivity
